Test results from patent US8679540B2, “Pharmaceutical formulations for the prolonged release of active principle(s), and their applications, especially therapeutic applications” (Flamel Technologies, priority 2006, dated 2014).

Tests used:
[1] = Pharmacokinetics of hGH in the dog after subcutaneous injection of a microparticle formulation (Example 13); format: in vivo, beagle dogs; conditions: hGH IR 5 × 0.1 mg/kg per day, Formulation 3 0.5 mg/kg
Procedure: (§1) Twelve naïve beagle dogs (weighing 7 to 10 kg) were treated with the following formulations:
The hGH IR corresponds to a solution of recombinant human growth hormone ([hGH]=4.1 mg/ml, pH=7.2, 330 mOsm). Formulation 3 is prepared according to Example 9.

[2] = Pharmacokinetics of hGH in the dog after subcutaneous injection of nanoparticle and microparticle formulations (Example 12); format: in vivo, beagle dogs; conditions: 1 mg/kg hGH
Procedure: as §1
The hGH IR corresponds to a solution of recombinant human growth hormone ([hGH]=4 mg/ml, pH=7.2, 330 mOsm).
Formulation 1 is prepared according to Example 2 and formulation 2 according to Example 7. The hGH is assayed by ELISA (DSL 10-1900 kit).
where: • Cmax is the maximum serum hGH concentration, • T>5 ng/ml is the time when the serum hGH concentration is greater than 5 ng/ml, • AUC represents the area under the curve of serum hGH concentration as a function of time, • RBA represents the bioavailability relative to an Immediate-Release formulation, • T50% auc represents the time required to release 50% of the total hGH released.

hGH IR: solution of recombinant human growth hormone, immediate-release reference
AUC0-last ± SD [1]: 258 ± 26 ng·h/mL
Cmax ± SD (maximum serum hGH concentration) [1]: 90 ± 24 ng/mL
RBA (bioavailability relative to an Immediate-Release formulation) [1]: 100%
T50% auc ± SD [1]: 2 ± 0.3 h
T > 1 ng/ml ± SD [1]: 39 h
RBA (bioavailability relative to an Immediate-Release formulation) [2]: 100%
T50% auc ± SD (time required to release 50% of the total hGH released) [2]: 4 ± 1 h
T > 5 ng/ml ± SD (time when serum hGH concentration is greater than 5 ng/ml) [2]: 18 ± 3 h
apparent T½ (elimination) [2]: about 2 hours
median time to reach maximum serum concentration [2]: 2 h
time beyond which circulating hGH is no longer quantifiable [2]: 24 h
AUC0-last ± SD ([2]; serum hGH): 3209 ± 276 ng·h/mL
Cmax ± SD (maximum serum hGH concentration) ([2]; serum, ELISA, 1 mg/kg): 582 ± 155 ng/mL
